Measured values published in US20250361268A1, “NOVEL ANTI-INFLAMMATORY PEPTIDE AND USE THEREOF” (NOVACELL TECHNOLOGY INC., priority 2022, published 2025).

T1: formyl peptide receptor 2 (FPR2) (UniProt P25090 1-351, limits assumed)
T1 sequence (looked up): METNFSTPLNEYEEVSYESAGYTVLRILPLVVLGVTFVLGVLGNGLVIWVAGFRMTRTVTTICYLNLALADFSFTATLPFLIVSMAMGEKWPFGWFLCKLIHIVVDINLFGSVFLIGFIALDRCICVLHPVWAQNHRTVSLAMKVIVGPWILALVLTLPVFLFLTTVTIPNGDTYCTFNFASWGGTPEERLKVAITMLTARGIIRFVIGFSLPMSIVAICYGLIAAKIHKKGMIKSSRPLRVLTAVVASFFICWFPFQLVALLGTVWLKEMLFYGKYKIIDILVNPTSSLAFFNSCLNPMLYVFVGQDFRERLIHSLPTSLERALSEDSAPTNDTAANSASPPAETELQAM

B1: peptide of SEQ ID NO 107 (peptide)
peptide: RMRYWPM
HELM: PEPTIDE1{[ac].R.M.R.Y.W.P.[dM].[am]}$$$$V2.0
SMILES: CSCC[C@H](NC(=O)[C@H](CCCNC(=N)N)NC(C)=O)C(=O)N[C@@H](CCCNC(=N)N)C(=O)N[C@@H](Cc1ccc(O)cc1)C(=O)N[C@@H](Cc1c[nH]c2ccccc12)C(=O)N1CCC[C@H]1C(=O)N[C@H](CCSC)C(N)=O
B2: peptide of SEQ ID NO 105 (peptide)
peptide: MRYWVM
HELM: PEPTIDE1{[ac].M.R.Y.W.V.[dM].[am]}$$$$V2.0
SMILES: CSCC[C@H](NC(C)=O)C(=O)N[C@@H](CCCNC(=N)N)C(=O)N[C@@H](Cc1ccc(O)cc1)C(=O)N[C@@H](Cc1c[nH]c2ccccc12)C(=O)N[C@H](C(=O)N[C@H](CCSC)C(N)=O)C(C)C
B3: peptide of SEQ ID NO 104 (peptide)
peptide: RMRYWVM
HELM: PEPTIDE1{[ac].R.M.R.Y.W.V.[dM].[am]}$$$$V2.0
SMILES: CSCC[C@H](NC(=O)[C@H](CCCNC(=N)N)NC(C)=O)C(=O)N[C@@H](CCCNC(=N)N)C(=O)N[C@@H](Cc1ccc(O)cc1)C(=O)N[C@@H](Cc1c[nH]c2ccccc12)C(=O)N[C@H](C(=O)N[C@H](CCSC)C(N)=O)C(C)C
B4: peptide of SEQ ID NO 102 (peptide)
peptide: WRYWVM
HELM: PEPTIDE1{[ac].W.R.Y.W.V.[dM].[am]}$$$$V2.0
SMILES: CSCC[C@@H](NC(=O)[C@@H](NC(=O)[C@H](Cc1c[nH]c2ccccc12)NC(=O)[C@H](Cc1ccc(O)cc1)NC(=O)[C@H](CCCNC(=N)N)NC(=O)[C@H](Cc1c[nH]c2ccccc12)NC(C)=O)C(C)C)C(N)=O
B5: peptide of SEQ ID NO 109 (peptide)
peptide: RMRYWPM
HELM: PEPTIDE1{[CCCCCCCC(=O)[*:2]].R.M.R.Y.W.P.[dM].[am]}$$$$V2.0
SMILES: CCCCCCCC(=O)N[C@@H](CCCNC(=N)N)C(=O)N[C@@H](CCSC)C(=O)N[C@@H](CCCNC(=N)N)C(=O)N[C@@H](Cc1ccc(O)cc1)C(=O)N[C@@H](Cc1c[nH]c2ccccc12)C(=O)N1CCC[C@H]1C(=O)N[C@H](CCSC)C(N)=O
B6: peptide of SEQ ID NO 111 (peptide)
peptide: MRYWPM
HELM: PEPTIDE1{[ac].M.R.Y.W.P.[dM].[am]}$$$$V2.0
SMILES: CSCC[C@H](NC(C)=O)C(=O)N[C@@H](CCCNC(=N)N)C(=O)N[C@@H](Cc1ccc(O)cc1)C(=O)N[C@@H](Cc1c[nH]c2ccccc12)C(=O)N1CCC[C@H]1C(=O)N[C@H](CCSC)C(N)=O
B7: peptide of SEQ ID NO 106 (peptide)
peptide: RMRYWPM
HELM: PEPTIDE1{R.M.R.Y.W.P.[dM].[am]}$$$$V2.0; N-terminus assumed
SMILES: CSCC[C@H](NC(=O)[C@@H](N)CCCNC(=N)N)C(=O)N[C@@H](CCCNC(=N)N)C(=O)N[C@@H](Cc1ccc(O)cc1)C(=O)N[C@@H](Cc1c[nH]c2ccccc12)C(=O)N1CCC[C@H]1C(=O)N[C@H](CCSC)C(N)=O
B8: peptide of SEQ ID NO 110 (peptide)
peptide: MRYWPM
HELM: PEPTIDE1{M.R.Y.W.P.[dM].[am]}$$$$V2.0; N-terminus assumed
SMILES: CSCC[C@H](N)C(=O)N[C@@H](CCCNC(=N)N)C(=O)N[C@@H](Cc1ccc(O)cc1)C(=O)N[C@@H](Cc1c[nH]c2ccccc12)C(=O)N1CCC[C@H]1C(=O)N[C@H](CCSC)C(N)=O
B9: peptide of SEQ ID NO 108 (peptide)
peptide: RMRYWPM
HELM: PEPTIDE1{[CCCC(=O)[*:2]].R.M.R.Y.W.P.[dM].[am]}$$$$V2.0
SMILES: CCCC(=O)N[C@@H](CCCNC(=N)N)C(=O)N[C@@H](CCSC)C(=O)N[C@@H](CCCNC(=N)N)C(=O)N[C@@H](Cc1ccc(O)cc1)C(=O)N[C@@H](Cc1c[nH]c2ccccc12)C(=O)N1CCC[C@H]1C(=O)N[C@H](CCSC)C(N)=O

biological target: T1, formyl peptide receptor 2 (FPR2); test: cell-based or functional assay

Row | EC50 for [Ca2+] [nM] | Binder
1 | < 10 | B1
2 | < 10 | B2
3 | < 10 | B3
4 | < 10 | B4
5 | < 10 | B5
6 | < 10 | B6
7 | < 10 | B7
8 | < 10 | B8
9 | < 10 | B9
